Drawing on publication PMC12494035, this text covers stoichiometry N (per COPI heptamer) for 1 substance.

For this experiment, the target named is coatomer (COPI heptamer) (Mus musculus) (UniProt Q8CIE6). In words: cryo-EM structure; cryo-electron tomography and subtomogram averaging of COPI-coated vesicles and buds from an in vitro budding reaction: liposomes with 3 mol % PI4P (0.23 mg/ml), GTPγS 0.5 mM, COPI 1.36 μM, Arf1 20 μM, ARNO 4 μM, GOLPH3 9 μM; 50 mM Hepes pH 7.2, 125 mM KOAc, 30 min at 37°C; 7.5 Å map, model by rigid body fitting of domains from AlphaFold 3 predictions.

Chain of Arf1 (P84077 whole entry, the tested form may be a part): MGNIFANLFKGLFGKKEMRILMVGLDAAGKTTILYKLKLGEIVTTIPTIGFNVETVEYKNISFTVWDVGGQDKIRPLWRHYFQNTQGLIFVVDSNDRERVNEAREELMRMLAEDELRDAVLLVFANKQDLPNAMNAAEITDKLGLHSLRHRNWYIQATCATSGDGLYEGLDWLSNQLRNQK

On to “Arf1 (from UniProt P84077 1-181) (natural protein)”, for which the stoichiometry N (per COPI heptamer) was 2.
